Laboratory results reported in patent US20220176020A1, “Improved Bone Implant Matrix Comprising Proline-Rich Peptide And Method Of Preparing The Same” (Industrie Biomediche Insubri S.A., priority 2019, published 2022).
No end group written: not given here. *: point of attachment. FITC = O=C1OC2(c3ccc(O)cc3Oc3cc(O)ccc32)c2ccc(NC(=S)*)cc21

Assays:
[1] = Release profile of FITC-labelled PRP from SBP in 10 ml purified water; type: physicochemical; settings: for period of highest release rate / release of peptide: 10 ml purified water; for release of peptide: FITC on C- or N-terminal
Protocol: For 4 days the solution was analysed every 24 h using UV-vis, then 48 h after, and finally […] after. The water was changed every time to better simulate in vivo conditions, maximizing the drive force. Having a FITC+H2O calibration curve, the absorbance could be related to the concentration. Using a known quantity of water, the mass released could be derived from the measured concentration.
For a proper FITC release profile, also samples of bone implant matrix, identified as “SB”, reproduced according to example 3 were studied, since other components of the “SB” is likely to be released, the blank used for the spectroscopy was based on a water+“SB” solution. […] To identify the presence of “PRP” in the aqueous solution, FITC molecules were either attached to the C- or N-terminal of the peptide before loading.
Calibration was used to derive the concentration of FITC released in the water solution at the given time points. With a known quantity of water used at a given time, the mass released can be derived.
Best fit plots where made using the inbuild best-fit function of Graph (Software) assuming both a logarithmic and power function. In general, the logarithmic functions were more accurate (R^2-values closer to 1).

MC3T3-E1 cells = experiment: Real-time PCR of osteogenic marker mRNA levels (COL1A1, ALP, OC, VEGFA); type: cell-based, murine; settings: FIG. 10; for COL1A1 mRNA levels: after 14 days; for OC level: time at which highest/max is reached: measured at 1, 3, 7 and 14 days
Protocol: The cells assessed was murine pre-osteoblastic cell line (MC3T3-E1) obtained from the German Collection of Micro-organisms and Cell Cultures (DSMC, Braunschweig, Germany). MC3T3-E1 cells were routinely cultured at 37° C. in a humidified atmosphere of 5% CO2, and maintained in α-MEM supplemented with 10% foetal calf serum (FCS) and antibiotics (50 IU penicillin/ml and 50 μg streptomycin/ml). Cells were subcultured 1:4 before reaching confluence using PBS and trypsin/EDTA. All experiments were performed in the same passage of the MC3T3-E1 cells.
Then, cells were maintained static at 37° C. in a humidified atmosphere of 5% CO2 for up to 14 days. The same number of cells were cultured in parallel in plastic in all the experiments.
Total RNA was isolated with Tripure (Roche Diagnostics) and RNA was quantified using a spectrophotometer set at 260 nm. Real-time PCR was performed for two reference genes and several target gene (Table) The same amount of total RNA from each sample (370 ng) was reverse transcribed to cDNA at 37° C. for 60 min in a final volume of 20 μl, using High Capacity RNA to cDNA kit (Applied Biosystems). Each cDNA was diluted 1/7 and these dilutions are used to carry on the quantitative PCR.
Real-time PCR was performed in the Lightcycler 480® (Roche Diagnostics, Germany) using SYBR green detection. For each reaction, 7 μl of Lightcycler-FastStart DNA MasterPLUS SYBR Green I, 0.5 μM of sense and antisense specific primer and 3 μl of the cDNA dilution in a final volume of 10 μl was added. The normal amplification program consisted of a preincubation step for denaturation of the template cDNA (95° C.), followed by 45 cycles consisting of a denaturation step (95° C.), an annealing step (60° C., for all expect for ALP and osterix, which were 65° C. and 68° C. respectively) and an extension step (72° C.). Real-time efficiencies were calculated from the given slopes in the LightCycler 480 software using serial dilutions.
Relative quantification after PCRWas calculated by dividing the concentration of the target gene in each sample by the mean of the concentration of the two reference genes (Housekeeping genes) in the same sample using the advanced relative quantification method provided by the LightCycler 480 analysis software version 1.5 (Roche Diagnostics, Mannheim, Germany).

| Substance | release rate ([1]; after 14 days, FIG. 2) | COL1A1 mRNA levels (MC3T3-E1 cells) | OC level: time at which highest/max is reached (MC3T3-E1 cells) | period of highest release rate [1] | initial release ([1]; FIG. 2, comparison P2 vs P5) | release of peptide ([1]; after 14 days) |
| --- | --- | --- | --- | --- | --- | --- |
| P2N: PRP version P2 (SEQ ID 4) with FITC attached on the N terminal ({FITC}-PLVPSQPLVPSQPLVPSQPQPPLPP) | jump in release rate |  |  |  |  |  |
| PHQ PMQ PQP PVH PMQ PLP PQP PLPP (PHQPMQPQPPVHPMQPLPPQPPLPP; proline rich peptide) [P6, artificial Proline-Rich Peptide] |  | raised significantly | 7 days |  |  |  |
| PLV PSQ PLV PSQ PLV PSQ PQP PLPP (PLVPSQPLVPSQPLVPSQPQPPLPP; proline rich peptide) [P2, artificial Proline-Rich Peptide] |  |  |  | highest release rate the two first days | higher initial release than P5 | 11.75 to 14.01 µg |
| PLV PSS PLV PCC PLV PCC PSP PLPP (PLVPSSPLVPCCPLVPCCPSPPLPP; proline rich peptide) [P5, artificial Proline-Rich Peptide] |  | drop | fairly stable | highest release rate the two first days |  | 8.75 to 9.90 µg |
